In US7025971:

T1: PapD (wild type) (E. coli), P15319
T1 chain: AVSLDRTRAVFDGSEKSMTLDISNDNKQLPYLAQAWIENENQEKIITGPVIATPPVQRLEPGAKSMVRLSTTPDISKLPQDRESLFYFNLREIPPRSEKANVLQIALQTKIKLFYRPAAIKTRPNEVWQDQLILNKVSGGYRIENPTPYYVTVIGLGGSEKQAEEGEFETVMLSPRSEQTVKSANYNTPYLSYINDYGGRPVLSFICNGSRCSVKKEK


Molecular target: T1, PapD (wild type) (E. coli), P15319

Binder | % Inhibition [%]
YALAPNAVIPTSLALL (modifications not checked) [MS] | 1
LSFP (modifications not checked) [G1′-4′] | 0
